In patent US20020082202A1 (GlaxoSmithKline, published 2002):
No end group written: not given here.

Target: T1, HFGAN72 receptor (human, UniProt O43613 1-425)
T1 sequence (looked up): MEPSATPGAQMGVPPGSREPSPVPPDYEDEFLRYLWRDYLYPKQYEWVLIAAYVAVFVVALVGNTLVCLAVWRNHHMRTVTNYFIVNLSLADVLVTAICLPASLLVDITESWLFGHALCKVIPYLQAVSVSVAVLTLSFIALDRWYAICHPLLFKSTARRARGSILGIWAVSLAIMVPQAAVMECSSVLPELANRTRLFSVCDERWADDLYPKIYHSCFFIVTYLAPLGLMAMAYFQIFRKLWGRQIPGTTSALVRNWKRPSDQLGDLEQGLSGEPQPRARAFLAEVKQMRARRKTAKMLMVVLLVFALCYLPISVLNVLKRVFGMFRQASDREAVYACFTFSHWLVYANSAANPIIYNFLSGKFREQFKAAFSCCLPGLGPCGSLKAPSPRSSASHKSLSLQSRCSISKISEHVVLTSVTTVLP
Assay: cell-based or functional assay

B1: Lig 72A (HFGAN72 receptor ligand) (peptide)
peptide: QPLPDCCRQKTCSCRLYELLHGAGNHAAGILTL
modifications: cysteine pairing not given here; also: N-terminus blocked
Which “Intracellular calcium levels in Fura-loaded 293 cells transfected with the receptor; EC50” value does the source give for B1 here?
The value was ~0.05 µg/mL.
